According to US20180086837A1 (Ablynx, published 2018):
“And” between values parts separate entries of the source, which are not always exact repeats. Equal entries are not always repeated.

How the values were obtained:
[1] = molecular target: T1, human CXCR4 (human, UniProt P61073 1-352); experiment: cell-based or functional assay
[2] = molecular target: T1, human CXCR4; experiment: flow cytometry, THP-1 cells (double-positive)
[3] = molecular target: T1, human CXCR4; experiment: inhibition of 12G5 (competitor, 10 nM PE-labelled) binding, SUPT-1 cells
[4] = molecular target: T1, human CXCR4; experiment: [125I]-SDF-1 displacement, HEK293-CXCR4 membrane extracts, n = 3
[5] = molecular target: T1, human CXCR4; experiment: cell-based or functional assay; remark: listed apart in the source
[6] = molecular target: T1, human CXCR4; experiment: cell-based or functional assay; remark: listed apart in the source
[7] = molecular target: T1, human CXCR4; experiment: cell-based or functional assay; remark: listed apart in the source
[8] = molecular target: T1, human CXCR4; experiment: cell-based or functional assay; remark: listed apart in the source
[9] = molecular target: T1, human CXCR4; experiment: inhibition of 12G5 (competitor, 10 nM PE-labelled) binding, THP-1 cells
[10] = molecular target: T1, human CXCR4; experiment: cell-based or functional assay; remark: listed apart in the source
[11] = molecular target: T1, human CXCR4; experiment: inhibition of 12G5 (competitor, 10 nM PE-labelled) binding, Jurkat cells
[12] = molecular target: T1, human CXCR4; experiment: cell-based or functional assay; remark: listed apart in the source
[13] = molecular target: T1, human CXCR4; experiment: [125I]-SDF-1 displacement, HEK293-CXCR4 membrane extracts
[14] = molecular target: T1, human CXCR4; experiment: cell-based or functional assay; remark: listed apart in the source
[15] = molecular target: T1, human CXCR4; experiment: flow cytometry, MOLM-13 cells (CXCR4+/CD4+)
[16] = molecular target: T1, human CXCR4; experiment: flow cytometry, Jurkat E6-1 cells (CXCR4+/CD4low)
[17] = molecular target: T1, human CXCR4; experiment: SDF-1^AF647 displacement, SUPT-1 cells, flow cytometry, n = 3
[18] = molecular target: T1, human CXCR4; experiment: cell-based or functional assay; remark: listed apart in the source
[19] = molecular target: T1, human CXCR4; experiment: cell-based or functional assay; remark: listed apart in the source
[20] = molecular target: T1, human CXCR4; experiment: competition with 12G5 (competitor, 1 nM), Jurkat cells, flow cytometry
[21] = molecular target: T1, human CXCR4; experiment: inhibition of 12G5 binding, Jurkat cells; 12G5 inhibition on Jurkat cells; potency ratio to monovalent 281F12
[22] = molecular target: T1, human CXCR4; experiment: SDF-1^AF647 displacement, SUPT-1 cells, flow cytometry, n = 3; SDF-1^AF647 displacement on SUPT-1 cells (CXCR4 and CD4 co-expressed)
[23] = molecular target: T1, human CXCR4; experiment: inhibition of 12G5 (competitor, 10 nM PE-labelled) binding, Jurkat cells; 12G5 mAb binding inhibition on Jurkat cells (CD4 low)
[24] = molecular target: T1, human CXCR4; experiment: inhibition of 12G5 (competitor, 10 nM PE-labelled) binding, SUPT-1 cells; 12G5 mAb binding inhibition on SUPT-1 cells (CXCR4 and CD4 co-expressed)

T1 sequence (P61073 whole entry): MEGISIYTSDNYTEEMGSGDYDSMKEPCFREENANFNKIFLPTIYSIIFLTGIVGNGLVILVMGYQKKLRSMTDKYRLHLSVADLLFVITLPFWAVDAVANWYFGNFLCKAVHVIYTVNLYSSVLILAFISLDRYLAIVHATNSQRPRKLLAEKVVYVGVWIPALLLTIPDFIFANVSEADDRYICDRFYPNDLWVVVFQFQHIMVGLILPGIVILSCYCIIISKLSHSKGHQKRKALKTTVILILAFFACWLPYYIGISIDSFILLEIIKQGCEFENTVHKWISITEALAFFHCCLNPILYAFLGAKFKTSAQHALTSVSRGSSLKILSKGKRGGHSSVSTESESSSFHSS

B1: Nanobody 281F12 (VHH)
VHH: EVQLVESGGGLVQAGDSLRLSCAASGRAFSRYAMGWFRQAPGKEREFVAAIGWGPSKTNYADSVKGRFTISRDNAKNTVYLQMNTLKPEDTAVYSCAAKFVNTDSTWSRSEMYTYWGQGTQVTVSS
notes: also called CXCR4 281F12; anti-CXCR4 Nanobody 281F12; not shown: C-terminal c-myc-His6 tag (E. coli) or FLAG3-His6 tag (Pichia)
In the case of B1, the “IC50, HIV1 infectivity, X4 NL4.3 in MT-4 cells” value [1] is reported as 59.4 nM, the EC50 [2] is reported as 3.1 nM and the IC50 [3] is reported as 51.3 nM. The pKi [4] was 7.57, the “IC50, inhibition of SDF-1a-mediated chemotaxis, Jurkat E6-1 cells” value [5] was 84.2 nM and the “IC50, inhibition of SDF-1a-mediated chemotaxis, MOLM-13 cells” value [5] was 86 nM. For the same binder, the “IC50, TZM-bl, DJ259 (R5)” value [6] was greater than 6700 nM, the “IC50, TZM-bl, NL4.3 3F11 res” value [6] was 45.6 nM and the “IC50, TZM-bl, NL4.3 281F12 res” value [6] was 366 nM. The “IC50, TZM-bl, NL4.3 WT (X4)” value [6] was 23.5 nM, the “IC50, TZM-bl, SM145 (R5)” value [6] was greater than 6700 nM and the “IC50, MT-4, HE (R5/X4)” value [7] was 10 nM. For the same binder, the “IC50, MT-4, HIV-2 ROD (R5/X4)” value [7] was 86.7 nM, the “IC50, MT-4, NL4.3 (X4)” value [7] was 22.7 nM and the “IC50, PBMC, BaL (R5)” value [7] was greater than 1700 nM. For the same binder, the “IC50, PBMC, DJ259 (R5)” value [7] was greater than 1700 nM, the “IC50, PBMC, HE (R5/X4)” value [7] was 350 nM and the “IC50, PBMC, NL4.3 (X4)” value [7] was 47 nM. The “IC50, MT-4, NL4.3 2G12 res.” value [8] was 17.3 nM, the “IC50, MT-4, NL4.3 3F11 res.” value [8] was 87.3 nM and the “IC50, MT-4, NL4.3 281F12 res.” value [8] was 2330 nM. For the same binder, the “IC50, MT-4, NL4.3 AMD-3100 res.” value [8] was greater than 1700 nM, the “IC50, MT-4, NL4.3 CXCL-12 res.” value [8] was 220 nM and the “IC50, MT-4, NL4.3 wt” value [8] was 22.7 nM. For the same binder, the “IC50, PBMC, NL4.3 3F11 res.” value [8] was 120 nM, the “IC50, PBMC, NL4.3 281F12 res.” value [8] was 310 nM and the “IC50, PBMC, NL4.3 WT” value [8] was 28 nM. The IC50 [9] was 49.3 nM, the “IC50, MT-4 + NL4.3 (X4)” value [10] was 22.9 nM and the “IC50, PBMC + BaL (R5)” value [10] was greater than 1670 nM. For the same binder, the “IC50, PBMC + NL4.3 (X4)” value [10] was 27.7 nM, the “IC50, U87 + NL4.3 (X4)” value [10] was greater than 6670 nM and the IC50 [11] was 13.7 nM. The “IC50, SDF-1 induced Ca2+ signaling, U87-CD4-CXCR4 cells” value [12] was 66.7 nM, the Ki [13] was 27 nM and 26 nM and the “IC50, HIV-1 CM237 (clade B) infectivity in PBMC” value [14] was 16 nM. For the same binder, the “IC50, HIV-1 NL4.3 (X4) infectivity in PBMC” value [14] was 14 nM, the “IC50, HIV-1 UG270 (clade D) infectivity in PBMC” value [14] was 12 nM and the “IC90, HIV-1 CM237 (clade B) infectivity in PBMC” value [14] was 49 nM. For the same binder, the “IC90, HIV-1 NL4.3 (X4) infectivity in PBMC” value [14] was 57 nM, the “IC90, HIV-1 UG270 (clade D) infectivity in PBMC” value [14] was 2.4 nM and the EC50 [15] was 5.2 nM. The EC50 [16] was 7 nM, the IC50 [17] was 6.3 nM and the “IC50, syncytia formation, SupT1 + HUT-78/IIIb” value [18] was 1800 nM. For the same binder, the “IC50, syncytia formation, SupT1 + HUT-78/NL4.3” value [18] was 3600 nM, the “IC50, dual-tropic R5/X4 HIV-1 HE in PBMCs” value [19] was 267 nM and the “average IC50, HIV-1 NL4.3 replication in MT-4 cells” value [19] was 0.34 µg/mL. For the same binder, the IC50 [20] was 13 nM.

B2: 03F11-35GS-281F12 (bispecific antibody)
chain: EVQLVESGGGSVQPGGSLTLSCGTSGRTFNVMGWFRQAPGKEREFVAAVRWSSTGIYYTQYADSVKSRFTISRDNAKNTVYLEMNSLKPEDTAVYYCAADTYNSNPARWDGYDFRGQGTQVTVSSGGGGSGGGGSGGGGSGGGGSGGGGSGGGGSGGGGSEVQLVESGGGLVQAGDSLRLSCAASGRAFSRYAMGWFRQAPGKEREFVAAIGWGPSKTNYADSVKGRFTISRDNAKNTVYLQMNTLKPEDTAVYSCAAKFVNTDSTWSRSEMYTYWGQGTQVTVSS
notes: Bispecific Nanobody construct, CD4 arm N-terminal; also called CD4-35GS-CXCR4; 3F11-281F12; not shown: C-terminal c-myc-His6 tag (E. coli) or FLAG3-His6 tag (Pichia)
With B2 the “fold loss of potency compared to monovalent CXCR4 Nanobody construct” value [21] was 50 fold, the “IC50, inhibition of SDF-1a-mediated chemotaxis, Jurkat E6-1 cells” value [5] was 460 nM and the “IC50, inhibition of SDF-1a-mediated chemotaxis, MOLM-13 cells” value [5] was 1.29 nM. For the same binder, the “Ratio to 281F12 (fold increase in potency), chemotaxis, Jurkat E6-1 cells” value [5] was 0.2 fold, the “Ratio to 281F12 (fold increase in potency), chemotaxis, MOLM-13 cells” value [5] was 67 fold and the IC50 [22] was 1.5 nM. For the same binder, the “IC50, SDF-1 induced Ca2+ signaling, U87-CD4-CXCR4 cells” value [12] was 3.43 nM, the IC50 [23] was 631 nM and the IC50 [24] was 56.6 nM.
